Measurements taken from patent US20220356230A1 (published 2022).

What was measured:
[1] = biological target: T1, MERS-CoV (SARS-CoV-2) Spike Protein S2 (aa 726-1296, His Tag) (Sino 40070-[change]) (MERS-CoV, UniProt K9N5Q8 726-1296); assay: Luminex bead assay, supernatant on antigen microspheres
T1 sequence: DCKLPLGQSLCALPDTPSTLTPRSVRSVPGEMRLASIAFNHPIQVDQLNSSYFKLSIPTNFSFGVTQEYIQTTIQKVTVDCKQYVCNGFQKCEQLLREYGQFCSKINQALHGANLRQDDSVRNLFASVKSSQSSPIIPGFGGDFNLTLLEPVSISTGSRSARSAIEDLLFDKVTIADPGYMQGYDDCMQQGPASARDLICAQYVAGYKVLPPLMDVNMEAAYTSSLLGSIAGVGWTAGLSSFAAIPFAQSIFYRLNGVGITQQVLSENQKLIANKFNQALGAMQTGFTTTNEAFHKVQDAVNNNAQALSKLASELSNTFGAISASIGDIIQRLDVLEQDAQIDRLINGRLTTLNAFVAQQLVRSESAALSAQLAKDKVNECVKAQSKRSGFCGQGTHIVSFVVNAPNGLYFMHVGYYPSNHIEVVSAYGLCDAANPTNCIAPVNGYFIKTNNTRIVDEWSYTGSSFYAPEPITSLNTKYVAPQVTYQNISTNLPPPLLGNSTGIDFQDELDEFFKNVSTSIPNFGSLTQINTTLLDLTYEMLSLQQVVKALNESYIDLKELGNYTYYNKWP

[2] = biological target: T2, MERS-CoV (SARS-CoV-2) Spike Protein (ECD, aa 1-1297, His Tag) (Sino 40069-[change]) (MERS-CoV, UniProt K9N5Q8 18-1297); assay: as above
T2 sequence: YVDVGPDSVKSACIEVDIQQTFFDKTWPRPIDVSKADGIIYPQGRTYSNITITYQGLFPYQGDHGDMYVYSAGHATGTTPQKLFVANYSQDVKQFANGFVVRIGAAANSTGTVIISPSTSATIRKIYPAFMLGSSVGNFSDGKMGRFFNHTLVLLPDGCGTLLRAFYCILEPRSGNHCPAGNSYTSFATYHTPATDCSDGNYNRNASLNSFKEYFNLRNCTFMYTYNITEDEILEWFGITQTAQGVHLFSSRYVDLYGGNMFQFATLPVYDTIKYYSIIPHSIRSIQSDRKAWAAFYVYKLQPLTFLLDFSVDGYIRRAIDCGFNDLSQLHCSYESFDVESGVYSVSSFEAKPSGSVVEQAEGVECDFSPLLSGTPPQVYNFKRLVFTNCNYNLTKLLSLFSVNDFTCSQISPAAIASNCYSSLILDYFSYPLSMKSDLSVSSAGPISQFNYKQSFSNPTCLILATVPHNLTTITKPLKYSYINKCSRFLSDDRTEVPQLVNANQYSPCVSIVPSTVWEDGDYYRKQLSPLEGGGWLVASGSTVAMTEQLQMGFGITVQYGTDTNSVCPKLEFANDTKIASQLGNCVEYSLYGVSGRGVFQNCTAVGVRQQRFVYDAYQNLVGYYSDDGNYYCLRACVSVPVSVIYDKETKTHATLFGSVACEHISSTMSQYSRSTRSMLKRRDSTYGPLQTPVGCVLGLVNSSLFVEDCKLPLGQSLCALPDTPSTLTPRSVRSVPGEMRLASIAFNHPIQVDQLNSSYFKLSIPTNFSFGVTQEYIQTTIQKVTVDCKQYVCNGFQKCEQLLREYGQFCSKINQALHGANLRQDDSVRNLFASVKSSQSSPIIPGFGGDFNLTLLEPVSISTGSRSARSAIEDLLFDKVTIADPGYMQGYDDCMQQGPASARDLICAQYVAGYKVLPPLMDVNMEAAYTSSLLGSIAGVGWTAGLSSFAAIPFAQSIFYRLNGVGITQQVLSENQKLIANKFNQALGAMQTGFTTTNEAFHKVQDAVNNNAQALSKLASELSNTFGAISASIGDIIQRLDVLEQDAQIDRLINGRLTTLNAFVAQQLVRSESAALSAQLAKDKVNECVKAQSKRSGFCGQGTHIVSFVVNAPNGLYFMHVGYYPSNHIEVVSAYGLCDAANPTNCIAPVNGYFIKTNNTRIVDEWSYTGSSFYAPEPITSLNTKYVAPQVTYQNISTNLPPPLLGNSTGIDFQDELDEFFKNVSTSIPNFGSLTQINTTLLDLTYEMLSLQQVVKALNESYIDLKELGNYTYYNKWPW

[3] = biological target: T3, MERS-CoV (SARS-CoV-2) Spike Protein S2 (aa 726-1296, His Tag) (Sino 40070-[change]) (MERS-CoV, UniProt K9N5Q8 726-1296); assay: Luminex bead binding, antigen on microspheres, antibody supernatant
T3 sequence: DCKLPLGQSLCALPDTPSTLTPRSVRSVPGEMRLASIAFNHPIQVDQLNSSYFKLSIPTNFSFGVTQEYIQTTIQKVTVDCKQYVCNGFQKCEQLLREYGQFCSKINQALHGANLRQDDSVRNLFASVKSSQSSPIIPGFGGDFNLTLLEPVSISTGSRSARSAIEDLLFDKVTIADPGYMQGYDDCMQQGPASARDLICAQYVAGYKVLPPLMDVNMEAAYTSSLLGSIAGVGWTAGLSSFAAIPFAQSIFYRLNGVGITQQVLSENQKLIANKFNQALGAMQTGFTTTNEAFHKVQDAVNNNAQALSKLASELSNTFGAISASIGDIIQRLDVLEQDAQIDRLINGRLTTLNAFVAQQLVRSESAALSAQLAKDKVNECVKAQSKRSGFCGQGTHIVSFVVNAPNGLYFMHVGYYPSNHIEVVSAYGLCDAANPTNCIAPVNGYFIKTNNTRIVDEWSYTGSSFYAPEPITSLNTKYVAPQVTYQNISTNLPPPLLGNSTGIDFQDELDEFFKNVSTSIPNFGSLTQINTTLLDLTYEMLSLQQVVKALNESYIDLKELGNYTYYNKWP

[4] = biological target: T4, MERS-CoV (SARS-CoV-2) Spike Protein (ECD, aa 1-1297, His Tag) (Sino 40069-[change]) (MERS-CoV, UniProt K9N5Q8 18-1297); assay: as above
T4 sequence: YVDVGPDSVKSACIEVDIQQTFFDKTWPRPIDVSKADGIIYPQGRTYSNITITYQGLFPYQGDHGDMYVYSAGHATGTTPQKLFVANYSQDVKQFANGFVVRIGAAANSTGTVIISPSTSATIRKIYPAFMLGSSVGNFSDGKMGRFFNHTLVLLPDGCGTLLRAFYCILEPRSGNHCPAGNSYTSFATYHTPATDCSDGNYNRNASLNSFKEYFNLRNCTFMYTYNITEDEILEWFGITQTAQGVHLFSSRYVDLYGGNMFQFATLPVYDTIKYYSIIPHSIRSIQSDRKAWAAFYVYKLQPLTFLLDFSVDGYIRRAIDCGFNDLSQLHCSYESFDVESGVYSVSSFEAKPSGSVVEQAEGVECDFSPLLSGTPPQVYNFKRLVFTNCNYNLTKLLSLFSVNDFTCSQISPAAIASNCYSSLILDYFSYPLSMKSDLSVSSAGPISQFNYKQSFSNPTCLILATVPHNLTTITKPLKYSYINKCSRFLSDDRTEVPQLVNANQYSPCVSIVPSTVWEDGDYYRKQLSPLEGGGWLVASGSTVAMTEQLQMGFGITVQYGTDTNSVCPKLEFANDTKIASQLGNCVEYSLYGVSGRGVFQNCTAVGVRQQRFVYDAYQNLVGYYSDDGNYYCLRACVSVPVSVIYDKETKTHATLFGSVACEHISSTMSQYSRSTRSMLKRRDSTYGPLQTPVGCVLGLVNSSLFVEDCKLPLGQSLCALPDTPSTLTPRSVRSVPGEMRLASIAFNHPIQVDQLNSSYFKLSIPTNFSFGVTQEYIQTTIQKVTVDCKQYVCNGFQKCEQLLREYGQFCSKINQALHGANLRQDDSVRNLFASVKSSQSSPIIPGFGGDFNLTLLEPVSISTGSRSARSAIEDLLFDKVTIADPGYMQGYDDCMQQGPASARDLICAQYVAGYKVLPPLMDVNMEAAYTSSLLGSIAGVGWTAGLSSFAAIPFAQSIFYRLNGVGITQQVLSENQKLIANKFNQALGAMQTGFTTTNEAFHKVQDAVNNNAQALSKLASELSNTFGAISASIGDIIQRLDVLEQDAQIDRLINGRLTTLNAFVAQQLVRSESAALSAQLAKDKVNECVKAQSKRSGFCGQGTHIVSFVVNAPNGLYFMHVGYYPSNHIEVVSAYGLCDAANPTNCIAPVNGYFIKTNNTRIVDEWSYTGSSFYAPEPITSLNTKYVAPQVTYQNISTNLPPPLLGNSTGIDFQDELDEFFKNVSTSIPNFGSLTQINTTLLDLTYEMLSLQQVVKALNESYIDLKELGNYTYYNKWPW

[5] = biological target: Human SARS Coronavirus Spike S1 Subunit Protein (His Tag) (Sino 40150-V08B1) (Human SARS Coronavirus, UniProt P59594 14-667); assay: as above

B1: mAb10913 (antibody, V domains shown)
VH: EVQLVESGGGLVQPGGSLRLSCAASGFTFRNYEMNWVRQAPGKGLEWVSYITSSGSTMYYADSVKGRFTISRDNAKNSLYLQMNSLRAEDTAVYYCARDGFYYYYAMDVWGQGTTVTVSS
VL: QSVLTQPPSVSAAPGQKVTISCSGSSSNIGNNYVSWYQQLPGTAPKLLIYDNNKRPSGIPDRFSGSKSGTSATLGITGLQTGDEADYYCGTWDSSLSVGRVFGTGTKVTVLG
Binding signal (MFI) [1]: 26 MFI
Binding signal (MFI) [2]: 20 MFI

B2: mAb10914 (antibody, V domains shown)
VH: EVQLVESGGGLVQPGGSLRLSCAASGLIVSRNYMIWVRQAPGKGLEWVSVIYSGGSTFYADSVKGRFTISRHNSKNTLYLQMNSLRAEDTAVYYCARDLGTGGMDVWGQGTTVTVSS
VL: DIQLTQSPSFLSASVGDRVTITCWASQGISSYLAWYQQKPGKAPKLLIYAASTLQSGVPSRFSGSGSGTEFTLTISSLQPEDFATYYCQQLNSYPLTFGGGTKVEIKR
Binding signal (MFI) [1]: 28 MFI
Binding signal (MFI) [2]: 19 MFI

B3: mAb10987 (antibody, V domains shown)
VH: QVQLVESGGGVVQPGRSLRLSCAASGFTFSNYAMYWVRQAPGKGLEWVAVISYDGSNKYYADSVKGRFTISRDNSKNTLYLQMNSLRTEDTAVYYCASGSDYGDYLLVYWGQGTLVTVSS
VL: QSALTQPASVSGSPGQSITISCTGTSSDVGGYNYVSWYQQHPGKAPKLMIYDVSKRPSGVSNRFSGSKSGNTASLTISGLQSEDEADYYCNSLTSISTWVFGGGTKLTVLG
MFI [3]: 23 MFI
MFI [4]: 15 MFI

B4: mAb10971 (antibody, V domains shown)
VH: EVQLVESGGGLIQPGGSLRLSCAASGVTVSSNYMSWVRQAPGKGLEWVSVIYSGGSTFYSDSVKGRFSISRDNSKNTLYLQMNSLRAEDTAVYYCARDLYYYGMDVWGQGTTVTVSS
VL: DIQLTQSPSFLSASVGDRVTITCRASQGISTYLAWYQQKPGKAPKLLIYAASTLQSGVPSRFSGSGSGTEFTLTISSLQPEDFATYYCQQLDSYPGLTFGGGTKVEIKR
MFI [3]: 13 MFI
MFI [5]: 20 MFI
MFI [4]: 15 MFI

B5: mAb10957 (antibody, V domains shown)
VH: EVQLVESGGGLVQPGGSLRLSCAASGVTVSSNYMSWVRQAPGKGLEWVSVIYSGGSTFYADSVKGRFTISRDNSKNTLFLQMNSLRIEDTAVYYCARDLGPYGMDVWGQGTTVTVSS
VL: DIQLTQSPSFLSASVGDRVTITCRASQGISSYLAWYQQKPGKAPKLLIYAASTLQSGVPSRFSGSGSGTQFILTISSLQPEDFATYYCQQLNSYPGFTFGPGTKVDIKR
MFI [3]: 18 MFI
MFI [5]: 16 MFI
MFI [4]: 15 MFI

B6: mAb10956 (antibody, V domains shown)
VH: EVQLVESGGGLVQPGGSLRLSCAASGLTVSSNYMSWVRQAPGKGLEWVSVIYSGGSTFYADSVKGRFTISRDNSKNTLYLQMNSLRAEDTAVYYCARDLIKYGMDVWGQGTTVTVSS
VL: not shown
MFI [3]: 16 MFI
MFI [5]: 16 MFI
MFI [4]: 15 MFI

B7: mAb10969 (antibody, V domains shown)
VH: QVQLVESGGGVVQPGRSLRLSCAASGFTFSSYAMHWVRQAPGKGLEWVAVISYDGSNKYYADSVKGRFTISRDNSKNTLYLQMNSLRAEDTAVYYCARDGRTITMVRGVIDDAFDIWGQGTMVTVSS
VL: not shown
MFI [3]: 20 MFI
MFI [5]: 20 MFI
MFI [4]: 16 MFI

B8: mAb10966 (antibody, V domains shown)
VH: EVQLVESGGGLVQPGGSLRLSCAASGLTVSSNYMSWVRQAPGKGLEWVSVIYSGGSTFYADSVKGRFTISRDNSKNTLYLQMNSLRPEDTAVYYCAREGRIAATGYGMDVWGQGTTVTVSS
VL: not shown
MFI [3]: 16 MFI
MFI [5]: 20 MFI
MFI [4]: 16 MFI
